Data: patent US20030208060A1 (published 2003)

B1: glutathione-S-transferase (GST)-fusion protein containing apoB48R amino acid 223 to 710 (other)
chain: EMEQGVREADAGETEEPGAEGAGKGEEVVVVEKACESTRAWGTWGPGAEPEDWGILGREEARTTPGREEARAILDGEEARTISGGEEAETASGGEEAETASGGEEAGTASGGEEAGISSGGEAGTASGGEEAGTASGGDEAWTTSGKEEADLLGVRQTQYGAVPGERLLEATGKVWVLEEEGDEEREAEVSPFPKQAQVLGTERTEEAAESQTAGREAVGGQEAGESFEGQVDLRGKEAEMRQDLGIRADRAKMEELVQAEEAQEERGSSRDPVAELPSDGEAEGTADLEATPEARPEEELTGEESEAAQTSCGLLGVEWGGLTHSVTKGQGPELMGGAQTPTKQPEEREAGEVELMGVLALSKEEQERSLEAGPRHAGSVKPEASEAFPGAWENRTRKDMERGNTQEDAADGEQREEEETAGGQTLAAEAEGDRESELSEVPEAGGEGLTTQDAGCGTEEGEASVSENQELDGSTGADAGPCPSLGE
notes: Migrates as a dimer on SDS-PAGE; also called apoB48R-GST fusion protein (aa 223-710); not shown: glutathione-S-transferase of the pGEX-5X-3 vector (Pharmacia)
B2: MBP200 (membrane binding protein of ~200 kDa; human monocyte-macrophage apoB48 receptor, apoB48R) (receptor)
chain: MDFLRLYLPGLHQALRGALDSLGTFVSYLLGDAVPTVEREAQAAEELGVVAVGKTGKIVEEEAQEDLEGLRGSQNEGAGRLRGPGDDRRHEVGSSAVEQTWGWGDGSSHGSQAERQDSGAGETAKAARCQEPSAHLEARKKSKAGSGACQDRSGQAQERQESHEQEVNREERLRSWEQEEEEEEVRAREPGMARGAESEWTWHGETEGKAGAVGPKAAGDNREMEQGVREADAGETEEPGAEGAGKGEEVVVVEKACESTRAWGTWGPGAEPEDWGILGREEARTTPGREEARAILDGEEARTISGGEEAETASGGEEAETASGGEEAGTASGGEEAGISSGGEAGTASGGEEAGTASGGDEAWTTSGKEEADLLGVRQTQYGAVPGERLLEATGKVWVLEEEGDEEREAEVSPFPKQAQVLGTERTEEAAESQTAGREAVGGQEAGESFEGQVDLRGKEAEMRQDLGIRADRAKMEELVQAEEAQEERGSSRDPVAELPSDGEAEGTADLEATPEARPEEELTGEESEAAQTSCGLLGVEWGGLTHSVTKGQGPELMGGAQTPTKQPEEREAGEVELMGVLALSKEEQERSLEAGPRHAGSVKPEASEAFPGAWENRTRKDMERGNTQEDAADGEQREEEETAGGQTLAAEAEGDRESELSEVPEAGGEGLTTQDAGCGTEEGEASVSENQELDGSTGADAGPCPSLGEAYARETEDEEAEADRTSRRGWRLQAVAVGLPDREDAQTGSVAAGIMGGDVVPHISAAGAGEALEGALGQGWDSKEKEEAAAGEHAGGQEFGLEGSAEEEVTGRGSQVEAFESREGGPWGGRVEAEESAGAEDSCGLDPAGSQTARAEGMGAMVEAGGLLEKWTLLEEEAVGWQEREQREDSEGRCGDYHPEGEAPRLLDAEGLMVTGGRRAEAKETEPESLEHVRGQEEQPTHQAPAEAAPESVGEAETAEAMGSARGGAANSWSEAPLPGSLLDVSVPRSRVHLSRSSSQRRSRPSFRRTPAWEQQEEPPAPNPPEEELSAPEQRPLQLEEPLEPSPLRHDGTPVPARRRPLGHGFGLAHPGMMQELQARLGRPKPQ
notes: Native protein in Triton X-114 aqueous-phase extracts of THP-1 monocytes, run on non-reducing SDS-PAGE and blotted to nitrocellulose; Apparent Mr ~200 kD against ~114.8 kD deduced; also called TGRLP receptor; TGRLP/ApoB receptor
B3: GST fusion protein containing apoB48R amino acid 629-1088 (other)
chain: QEDAADGEQREEEETAGGQTLAAEAEGDRESELSEVPEAGGEGLTTQDAGCGTEEGEASVSENQELDGSTGADAGPCPSLGEAYARETEDEEAEADRTSRRGWRLQAVAVGLPDREDAQTGSVAAGIMGGDVVPHISAAGAGEALEGALGQGWDSKEKEEAAAGEHAGGQEFGLEGSAEEEVTGRGSQVEAFESREGGPWGGRVEAEESAGAEDSCGLDPAGSQTARAEGMGAMVEAGGLLEKWTLLEEEAVGWQEREQREDSEGRCGDYHPEGEAPRLLDAEGLMVTGGRRAEAKETEPESLEHVRGQEEQPTHQAPAEAAPESVGEAETAEAMGSARGGAANSWSEAPLPGSLLDVSVPRSRVHLSRSSSQRRSRPSFRRTPAWEQQEEPPAPNPPEEELSAPEQRPLQLEEPLEPSPLRHDGTPVPARRRPLGHGFGLAHPGMMQELQARLGRPKPQ
notes: not shown: glutathione-S-transferase of the pGEX-5X-3 vector (Pharmacia)
B4: GST fusion protein containing apoB48R amino acid 714-917 (other)
chain: RETEDEEAEADRTSRRGWRLQAVAVGLPDREDAQTGSVAAGIMGGDVVPHISAAGAGEALEGALGQGWDSKEKEEAAAGEHAGGQEFGLEGSAEEEVTGRGSQVEAFESREGGPWGGRVEAEESAGAEDSCGLDPAGSQTARAEGMGAMVEAGGLLEKWTLLEEEAVGWQEREQREDSEGRCGDYHPEGEAPRLLDAEGLMVTG
notes: as for B3
B5: human receptor-associated protein (RAP) (other, UniProt P30533 35-357, looked up)
chain: YSREKNQPKPSPKRESGEEFRMEKLNQLWEKAQRLHLPPVRLAELHADLKIQERDELAWKKLKLDGLDEDGEKEARLIRNLNVILAKYGLDGKKDARQVTSNSLSGTQEDGLDDPRLEKLWHKAKTSGKFSGEELDKLWREFLHHKEKVHEYNVLLETLSRTEEIHENVISPSDLSDIKGSVLHSRHTELKEKLRSINQGLDRLRRVSHQGYSTEAEFEEPRVIDLWDLAQSANLTDKELEAFREELKHFEAKIEKHNHYQKQLEIAHEKLRHAESVGDGERVSRSREKHALLEGRTKELGYTVKKHLQDLSGRISRARHNEL

How the values were obtained:
[1] = target: the molecule itself; test: SDS-PAGE of the purified fusion protein
[2] = target: T1, low density lipoprotein (LDL) (human, UniProt P04114 28-4563); test: ligand blot; lower affinity than HTG TGRLP and chylomicrons
T1 construct: Lipoprotein particle

[3] = target: T2, intermediate density lipoprotein (human, UniProt P04114 28-4563); test: ligand blot; the binding is of lower affinity
T2 construct: Lipoprotein particle; also called IDL

[4] = target: T3, normal VLDL Sf100-400 from a subject with normal plasma TG levels (human, UniProt P04114 28-4563); test: ligand blot; the binding is of lower affinity
T3 construct: Lipoprotein particle; also called N-V1; normal very low density lipoprotein

[5] = target: the molecule itself; test: SDS-PAGE of the purified GST fusion protein
[6] = target: B2; test: ligand blot
Procedure: The ligand blotting assay was performed essentially as described (Gianturco et al., 1988, 1994; Ramprasad et al., 1995) with minor modifications. Aliquots of the detergent extracts were electrophoresed on 5% polyacrylamide gels containing 0.1% SDS (Laemmli, 1970) under non-reducing conditions in a Bio-Rad minigel apparatus and electrotransferred to nitrocellulose. After blocking for 1 hour with 5% Carnation nonfat dry milk in ligand buffer (50 mM Tris-HCl (pH 8), 90 mM NaCl and 2 mM CaCl₂), the blots were rinsed with 0.5% milk in ligand buffer before incubation with lipoproteins in ligand buffer containing 0.05% milk (Gianturco et al., 1988).
For competitive ligand blots, TGRLP were biotinylated as described (O'Shannessy et al., 1984) and dialyzed extensively before use. […] After extensive washing, bound lipoprotein was detected by incubation with streptavidin linked to alkaline phosphatase, followed by substrates BCIP and NBT (Bio-Rad Laboratories, CA). In some experiments without antibodies as potential competitors, native, unlabeled TGRLP were used as the ligand, and bound TGRLP was detected with anti-apoB followed by alkaline phosphatase-linked secondary antibody. […]

T1 sequence (P04114 28-4563 limits assumed): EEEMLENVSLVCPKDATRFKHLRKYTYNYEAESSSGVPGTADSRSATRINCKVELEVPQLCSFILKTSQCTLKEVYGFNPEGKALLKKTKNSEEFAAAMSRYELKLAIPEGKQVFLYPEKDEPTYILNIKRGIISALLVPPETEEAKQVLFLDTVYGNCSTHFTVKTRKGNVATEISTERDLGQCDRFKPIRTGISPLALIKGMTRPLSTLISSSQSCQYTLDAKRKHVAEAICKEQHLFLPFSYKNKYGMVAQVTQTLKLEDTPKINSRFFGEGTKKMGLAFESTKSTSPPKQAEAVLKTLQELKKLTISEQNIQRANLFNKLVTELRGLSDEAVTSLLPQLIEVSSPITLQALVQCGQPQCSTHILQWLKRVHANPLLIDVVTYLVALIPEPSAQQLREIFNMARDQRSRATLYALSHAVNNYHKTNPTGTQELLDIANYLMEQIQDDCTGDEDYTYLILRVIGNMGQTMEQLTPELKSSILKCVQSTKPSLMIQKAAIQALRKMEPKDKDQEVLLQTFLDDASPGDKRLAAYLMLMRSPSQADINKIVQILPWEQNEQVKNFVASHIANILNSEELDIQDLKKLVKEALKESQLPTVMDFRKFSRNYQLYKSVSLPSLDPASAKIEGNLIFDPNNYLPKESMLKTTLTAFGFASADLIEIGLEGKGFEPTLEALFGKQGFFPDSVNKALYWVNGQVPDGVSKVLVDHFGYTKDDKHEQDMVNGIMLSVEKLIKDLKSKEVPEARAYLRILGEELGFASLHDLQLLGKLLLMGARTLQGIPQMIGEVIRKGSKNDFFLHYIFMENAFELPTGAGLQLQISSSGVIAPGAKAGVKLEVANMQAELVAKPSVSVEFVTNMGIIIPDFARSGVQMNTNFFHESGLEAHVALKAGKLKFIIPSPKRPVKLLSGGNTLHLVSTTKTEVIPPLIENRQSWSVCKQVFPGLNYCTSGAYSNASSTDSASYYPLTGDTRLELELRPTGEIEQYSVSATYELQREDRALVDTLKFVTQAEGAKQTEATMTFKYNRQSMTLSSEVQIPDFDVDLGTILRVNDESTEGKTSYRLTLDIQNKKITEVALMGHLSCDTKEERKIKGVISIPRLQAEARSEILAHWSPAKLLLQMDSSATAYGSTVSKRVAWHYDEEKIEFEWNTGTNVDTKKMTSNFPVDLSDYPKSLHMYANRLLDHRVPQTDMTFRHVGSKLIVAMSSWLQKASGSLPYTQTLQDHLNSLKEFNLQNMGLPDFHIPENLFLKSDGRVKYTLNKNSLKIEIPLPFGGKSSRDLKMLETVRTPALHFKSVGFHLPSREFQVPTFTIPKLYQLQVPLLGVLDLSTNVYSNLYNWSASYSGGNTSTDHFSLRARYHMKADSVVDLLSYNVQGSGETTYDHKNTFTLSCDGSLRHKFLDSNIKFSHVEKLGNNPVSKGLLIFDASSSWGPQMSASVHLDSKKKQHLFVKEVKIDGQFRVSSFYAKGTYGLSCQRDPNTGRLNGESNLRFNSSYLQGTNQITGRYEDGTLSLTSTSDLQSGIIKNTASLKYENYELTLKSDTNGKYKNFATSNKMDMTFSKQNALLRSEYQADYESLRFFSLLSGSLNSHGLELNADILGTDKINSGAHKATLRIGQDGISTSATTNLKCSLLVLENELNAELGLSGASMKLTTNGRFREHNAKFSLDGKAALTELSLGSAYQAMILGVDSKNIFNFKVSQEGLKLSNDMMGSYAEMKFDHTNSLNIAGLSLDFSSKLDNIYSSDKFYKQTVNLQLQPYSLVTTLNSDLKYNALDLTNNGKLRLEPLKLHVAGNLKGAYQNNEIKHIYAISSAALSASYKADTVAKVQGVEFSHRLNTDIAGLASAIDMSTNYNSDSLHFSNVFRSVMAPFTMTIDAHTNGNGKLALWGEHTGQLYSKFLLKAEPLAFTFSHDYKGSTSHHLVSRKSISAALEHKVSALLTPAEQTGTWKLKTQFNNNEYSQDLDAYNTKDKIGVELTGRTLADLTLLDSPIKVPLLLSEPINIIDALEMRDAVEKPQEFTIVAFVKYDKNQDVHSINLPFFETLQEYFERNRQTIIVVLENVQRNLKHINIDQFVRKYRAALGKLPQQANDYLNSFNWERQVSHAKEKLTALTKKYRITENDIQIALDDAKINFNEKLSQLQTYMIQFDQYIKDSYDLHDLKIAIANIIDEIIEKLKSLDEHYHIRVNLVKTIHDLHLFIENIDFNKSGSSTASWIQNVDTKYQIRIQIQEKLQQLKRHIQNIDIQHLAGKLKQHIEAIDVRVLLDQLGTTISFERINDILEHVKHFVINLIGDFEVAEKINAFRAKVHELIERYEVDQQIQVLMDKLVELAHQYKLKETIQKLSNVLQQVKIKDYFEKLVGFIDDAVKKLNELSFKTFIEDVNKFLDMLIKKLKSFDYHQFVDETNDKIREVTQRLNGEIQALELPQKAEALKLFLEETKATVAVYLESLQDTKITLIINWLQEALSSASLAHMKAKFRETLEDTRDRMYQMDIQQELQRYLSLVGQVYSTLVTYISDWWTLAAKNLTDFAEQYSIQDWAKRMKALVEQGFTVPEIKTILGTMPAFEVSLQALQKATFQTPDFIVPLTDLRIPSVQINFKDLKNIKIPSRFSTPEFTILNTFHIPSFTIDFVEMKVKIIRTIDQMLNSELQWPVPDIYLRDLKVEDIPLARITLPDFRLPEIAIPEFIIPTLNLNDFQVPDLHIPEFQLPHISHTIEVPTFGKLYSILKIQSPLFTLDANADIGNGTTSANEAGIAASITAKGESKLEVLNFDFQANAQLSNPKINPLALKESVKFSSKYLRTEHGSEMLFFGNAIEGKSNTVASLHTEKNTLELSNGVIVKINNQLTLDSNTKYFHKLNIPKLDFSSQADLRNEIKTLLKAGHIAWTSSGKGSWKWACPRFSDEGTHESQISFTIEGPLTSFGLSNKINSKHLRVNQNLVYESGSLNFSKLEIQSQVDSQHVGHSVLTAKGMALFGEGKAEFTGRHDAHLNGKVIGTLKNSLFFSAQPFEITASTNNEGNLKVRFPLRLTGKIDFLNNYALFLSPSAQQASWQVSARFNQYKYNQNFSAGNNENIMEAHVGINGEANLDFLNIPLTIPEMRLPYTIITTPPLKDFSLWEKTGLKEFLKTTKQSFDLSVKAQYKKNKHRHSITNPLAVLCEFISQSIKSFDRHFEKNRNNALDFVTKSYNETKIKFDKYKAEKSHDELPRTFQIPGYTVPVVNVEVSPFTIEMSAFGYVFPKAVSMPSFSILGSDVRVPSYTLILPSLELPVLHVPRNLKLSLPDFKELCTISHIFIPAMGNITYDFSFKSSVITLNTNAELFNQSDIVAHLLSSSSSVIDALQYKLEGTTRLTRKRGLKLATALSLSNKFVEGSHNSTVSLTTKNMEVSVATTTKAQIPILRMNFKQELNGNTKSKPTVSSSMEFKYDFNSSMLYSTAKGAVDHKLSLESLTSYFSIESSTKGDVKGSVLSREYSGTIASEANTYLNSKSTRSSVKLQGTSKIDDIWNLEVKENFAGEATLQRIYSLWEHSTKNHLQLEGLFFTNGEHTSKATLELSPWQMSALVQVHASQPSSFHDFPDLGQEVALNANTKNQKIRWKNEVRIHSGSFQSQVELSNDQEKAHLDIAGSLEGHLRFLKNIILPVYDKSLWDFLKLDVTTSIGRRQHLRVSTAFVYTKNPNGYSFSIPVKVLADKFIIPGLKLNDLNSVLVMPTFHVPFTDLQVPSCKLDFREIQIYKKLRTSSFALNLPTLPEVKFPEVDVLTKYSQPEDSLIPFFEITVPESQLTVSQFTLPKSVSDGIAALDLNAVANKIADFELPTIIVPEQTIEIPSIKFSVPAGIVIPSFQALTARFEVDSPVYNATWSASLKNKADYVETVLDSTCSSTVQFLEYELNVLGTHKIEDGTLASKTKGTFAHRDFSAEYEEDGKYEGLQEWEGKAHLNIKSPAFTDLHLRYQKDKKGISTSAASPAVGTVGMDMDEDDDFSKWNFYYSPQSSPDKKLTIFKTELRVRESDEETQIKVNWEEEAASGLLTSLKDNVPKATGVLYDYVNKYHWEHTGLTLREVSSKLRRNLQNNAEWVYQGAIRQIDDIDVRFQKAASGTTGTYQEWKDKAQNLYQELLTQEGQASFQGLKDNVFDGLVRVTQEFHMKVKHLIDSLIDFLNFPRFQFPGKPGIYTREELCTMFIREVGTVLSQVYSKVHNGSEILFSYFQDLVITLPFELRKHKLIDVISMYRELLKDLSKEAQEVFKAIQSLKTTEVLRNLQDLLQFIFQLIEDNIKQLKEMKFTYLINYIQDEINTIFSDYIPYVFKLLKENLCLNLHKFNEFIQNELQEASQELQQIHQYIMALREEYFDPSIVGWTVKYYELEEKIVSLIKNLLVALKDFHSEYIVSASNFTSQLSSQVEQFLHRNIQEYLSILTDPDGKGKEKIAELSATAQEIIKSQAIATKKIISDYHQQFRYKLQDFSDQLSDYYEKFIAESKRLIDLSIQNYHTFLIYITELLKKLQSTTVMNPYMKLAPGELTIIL
T3 sequence (P04114 28-4563 limits assumed): as above
T2 sequence (P04114 28-4563 limits assumed): as above

## B1
[1]
  binding result: binds

## B2
[2]
  binding result: binds
[3]
  binding result: binds
[4]
  binding result: binds

## B3
[5]
  binding result: no binding

## B4
[5]
  binding result: no binding

## B5
[6]
  binding result: no binding
